B1: His-SUMO tagged Staphylococcus aureus dihydroorotase (PyrC) (enzyme)
chain: LEVLFQGPMKLIKNGKVLQNGELQQADILIDGKVIKQIAPAIEPSNGVDIIDAKGHFVSPGFVDVHVHLREPGGEYKETIETGTKAAARGGFTTVCPMPNTRPVPDSVEHFEALQKLIDDNAQVRVLPYASITTRQLGKELVDFPALVKEGAFAFTDDGVGVQTASMMYEGMIEAAKVNKAIVAHCEDNSLIYGGAMHEGKRSKELGIPGIPNICESVQIARDVLLAEAAGCHYHVCHVSTKESVRVIRDAKRAGIHVTAEVTPHHLLLTEDDIPGNNAIYKMNPPLRSTEDREALLEGLLDGTIDCIATDHAPHARDEKAQPMEKAPFGIVGSETAFPLLYTHFVKNGDWTLQQLVDYLTIKPCETFNLEYGTLKENGYADLTIIDLDSEQEIKGEDFLSKADNTPFIGYKVYGNPILTMVEGEVKFEGDK
B2: native (cleaved) Staphylococcus aureus dihydroorotase (PyrC) (enzyme)
chain: GPMKLIKNGKVLQNGELQQADILIDGKVIKQIAPAIEPSNGVDIIDAKGHFVSPGFVDVHVHLREPGGEYKETIETGTKAAARGGFTTVCPMPNTRPVPDSVEHFEALQKLIDDNAQVRVLPYASITTRQLGKELVDFPALVKEGAFAFTDDGVGVQTASMMYEGMIEAAKVNKAIVAHCEDNSLIYGGAMHEGKRSKELGIPGIPNICESVQIARDVLLAEAAGCHYHVCHVSTKESVRVIRDAKRAGIHVTAEVTPHHLLLTEDDIPGNNAIYKMNPPLRSTEDREALLEGLLDGTIDCIATDHAPHARDEKAQPMEKAPFGIVGSETAFPLLYTHFVKNGDWTLQQLVDYLTIKPCETFNLEYGTLKENGYADLTIIDLDSEQEIKGEDFLSKADNTPFIGYKVYGNPILTMVEGEVKFEGDK

Biological target: the molecule itself
Assay: SEC

Protein | stoichiometry N
B1 | 2
B2 | 2

Reference: article PMC5663463 (Protein expression and purification, 2012)
